Literature values, collected in PMC6003685.

Target: PspF 1-265 (Escherichia coli) (UniProt P37344)

Kd: 1000 nM
Substance: PspA 1-144 (from UniProt P0AFM6)
